From article PMC10063446 (Nature Immunology, 2023) come the findings set out here.

Assay [1] concerns the target recombinant RBD protein of wild-type SARS-CoV-2 (ELISA antigen) (SARS-CoV-2 wild-type, UniProt P0DTC2).
In assay [2] the target is recombinant wild-type SARS-CoV-2 S trimer (ELISA antigen) (SARS-CoV-2 wild-type, UniProt P0DTC2).

B1: P195-1E11 (antibody, V domains shown)
VH: EVQLVESGGGLVQPGRSLRLSCAASGFTFDDYAMHWVRQAPGKGLEWVSGISWNSGSIVYADSVKGRFTISRDNAKNSLYLQMNSLRAEDTALYYCAKDSEDCSSTNCYFDYWGQGTLVTVSS
VL: not shown
For B1, the binding result in assay [1] and in assay [2] was “binds” throughout.

B2: P2-2H8 (antibody, V domains shown)
VH: QVQLVQSGAEVKKPGSSVKVSCKASGGTFSSYAISWVRQAPGQGLEWMGRIISMLGIANYAQKFQGRVTITADKSTSTAYMELSSLRSEDTAIYFCARDPDIHYDSSGYSHYYGMDVWGQGTTVTVSS
VL: DIVMTQSPLSLPVTPGEPASISCRSSQSLLHGNGYNYLDWYLQRPGQSPQLLIYLGSNRASGVPGRFSGSGSGTDFTLKISRVEAEDVGVYYCMQALQTLITFGQGTQLEIK
For B2, the binding result in assay [1] and in assay [2] was “binds” each time.

B3: P195-2A3 (antibody, V domains shown)
VH: QVTLRESGPALVKPTQTLTLTCTFSGFSLSTSGMCVSWIRQPPGKALEWLALIDWDDDKYYSTSLKTRLTISKDTSKNQVVLRMTNMDPVDTATYYCARSWVGGGLDVWGQGTTVTVSS
VL: not shown
For B3, the binding result in assay [1] and in assay [2] was “binds” each time.

B4: P2-1D5 (antibody, V domains shown)
VH: QVQLVESGGGVVQPGRSLRLSCAASGFTFSSSVMHWVRQAPGKGLEWVALIWYDGSNKYYADSVKGRFTISRDNSKNTLYLQMNSLRAEDTAVYYCARDREITMTTFDYWGQGTLVTVSS
VL: not shown
Turning to B4, the binding result in assay [1] and in assay [2] was “binds” in each case.

B5: P5S-3D10 (antibody, V domains shown)
VH: EVQLVESGGDLVQPGRSLRLSCAASGFTFSLFAMSWVRQAPGKGLEWVSTISGRGDSSYYADSVKGRFTISRDNSKNTLYLQITGLRAEDTAVYYCAKGVDGDYGNWFDPWGQGALVTVSS
VL: SYVLTQPPSVSVAPGKTARITCGGNNIGSKSVHWYQQKPGQAPVLVIYYDSDRPSGIPERISGSNSGNTATLTISRVEAGDEADYYCQVWHSSSVIFGGGTKLTVL
On to B5, for which the binding result in assay [1] and in assay [2] was “binds” each time.

B6: P186-2B1 (antibody, V domains shown)
VH: EVQLVESGGGLVQPGGSLRLSCAASGFTVSSNYMSWVRQAPGKGLEWVSVIYSGGSTYYTDSVKGRFTISRHNSKNTLYLQMNSLRVEDTAVYYCARVGTNYINNSGWYFDYWGQGTLVTVSS
VL: not shown
Regarding B6, the binding result in assay [1] and in assay [2] was “binds” each time.

B7: P5S-1D8 (antibody, V domains shown)
VH: EVQLVESGGGLVQPGRSLRLSCAASGFTFDDYAMYWVRQAPGKGLEWVSGVSWNSGTIGYADSVKGRFIISRDNAKNSLYLQMRSLRTEDTALYYCAKDSATRYYSGSDYTSYGMDVWGQGTTVTVSS
VL: QSALTQPASVSGSPGQSITVSCTGTSSDIGDYNYVSWYQQHPGKAPKLMIYDVSNRPSGASNRFSGSKSGNTASLTISGLQAEDEADYYCSSYTSSSTVVFGGGTKVTVL
B7: the binding result in assay [1] and in assay [2] was “binds” each time.

B8: P195-1B7 (antibody, V domains shown)
VH: QITLKESGPTLVKPTQTLTLTCTFSGFSLSTSGVGVGWIRQPPGKALEWLALIYWDDDKRYSPSLKSRLTITKDTSKNQVVLTMTNMDPVDTATYYCAHSGYSGYDWRGFDYWGQGTLVTVSS
VL: SYELTQPPSVSVSPGQTARITCSADALPKQYAYWYQQKPGQAPVLVIYKDSERPSGIPERFSGSSSGTTVTLTISGVQAEDEADYYCQSADSSGTYPVVFGGGTKLTVL
B8: the binding result in assay [1] and in assay [2] was “binds” each time.

B9: P5-2H11 (antibody, V domains shown)
VH: EVQLVESGGGLIQPGGSLRLSCAASEFTVSSNYMSWVRQAPGKGLEWVSIIYSGGSTFYADSVKGRFTISRDNSQNTLYLQMNSLRAEDTAVYYCARTLPLYGDYFDYWGQGTLVTVSS
VL: QSVLTQPPSVSGAPGQRVTISCTGSSSNIGAGYDVHWYQQLPGTAPKLLIYGNNNRPSGVPDRFSGSKSGTSASLAITGLQPEDEADYYCQSYDSSLSVVFGGGAKLTVL
With B9, the binding result in assay [1] and in assay [2] was “binds” throughout.

B10: P186-1H2 (antibody, V domains shown)
VH: EVQLVESGGGLVQPGRSLRLSCAASGFTFGDYAMHWVRQSPGKGLEWVSGITWNSAGIGYADSVKGRFTISRDNAKNSLYLQMNSLRVEDTALYYCAKAPKWGGVDYLFDYWGQGTLVTVSS
VL: not shown
On to B10, for which the binding result in assay [1] and in assay [2] was “binds” each time.

B11: P10S-2F9 (antibody, V domains shown)
VH: QVTLRESGPALVKPTQTLPLTCTFSGFSLSTSGMCVSWIRQPPGKALEWLALIDWDDNKYYSTSLKARLTISKDTSKNQVVLTMTNMDPVDTATYYCARIPALLRYLDKFYYFGMDVWGQGTTVTVSS
VL: QSVLTQPPSVSAAPGQKVTISCSGSSPNIGNNYVSWYQQLPGTAPKLLIYDNNKRPSGIPDRFSGSKSGTSATLGITGLQTGDEAGYYCGTWDSSLSAVVFGGGTKLTVL
Take B11: the binding result in assay [1] and in assay [2] was “binds” throughout.

B12: P104-1G2 (antibody, V domains shown)
VH: QLQLQESGPGLVKPSETLSLTCTVSGGSISSSSYYWGWIRQPPGKGLEWIGSIYYGGSTYYNPSLKSRVTISVDTSKNQFSLKLSSVTAADTAVYYCARSLGIFDYWGQGTLVTVSS
VL: DIQMTQSPSSLSASVGDRVTITCRASQGISNSLAWYQQKPGKAPKLLLYGASTLESGVPSRFSGSGSATDYTLTISSLQPEDFATYYCQQYYSNPPYTFGQGTKLEIK
In the case of B12, the binding result in assay [1] and in assay [2] was “binds” throughout.

B13: P10S-1D8 (antibody, V domains shown)
VH: QMQLVQSGPEVKKPGTSVKVPCKASGFTFSSSAVQWVRQARGQRLEWIGWIVVGSGNTNYAQKFQERVTITRDMSTSTAYMELSSLRSEDTAVYYCAAPGCNSTSCYDGFDIWGQGTMVTVSS
VL: not shown
As to B13, the binding result in assay [1] and in assay [2] was “binds” in each case.

B14: P2-2D8 (antibody, V domains shown)
VH: EVQLVESGGGLVKPGGSLRLSCAASGFTFSNAWMNWVRQAPGKGLEWVGRIKSKADGGTTDYAAPVKGRFTISRDDSKNTLYLQMNSLKTDDTAVYYCTTTRAVAATLNFLFSYYDGMDVWGQGTTVTVSS
VL: NFMLTQPHSVSESPGKTVTISCTGSSGSIASNYVQWYQQRPGSAPTTVIYEDNQRPSGVPDRFSGSIDSSSNSASLTISGLKTEDEADYYCQSYDSNNHLVLFGGGTKLTVL
With B14, the binding result in assay [1] and in assay [2] was “binds” in each case.

B15: P2S-2A6 (antibody, V domains shown)
VH: EVQLVESGGGLVQPGRSLRLSCAASGMTFDDYDMHWVRQVPGKGLEWVSGISWNGGIIGYADSVKGRFTISRDNAKTSLYLQMNSLRAEDTALYYCAKVAGRGDYDYYYGMDVWGQGTTVTVSS
VL: QSVLTQPPSVSGAPGQRVTISCTGSSSNIGAGYDVHWYQQLPGTAPKLLIYGNNNRPSGVPDRFSGSKSGTSASLAITGLQAEDEADYYCQSYDSSLSGSVFGGGTKLTVL
As to B15, the binding result in assay [1] and in assay [2] was “binds” each time.
